# Data reported in paper PMC2628593 (Molecular cell, 2008).
# B1: Skap55 (Src-kinase-associated phosphoprotein of 55 kDa) (natural protein, UniProt Q86WV1 1-359, looked up)
# chain: MQAAALPEEIRWLLEDAEEFLAEGLRNENLSAVARDHRDHILRGFQQIKARYYWDFQPQGGDIGQDSSDDNHSGTLGLSLTSDAPFLSDYQDEGMEDIVKGAQELDNVIKQGYLEKKSKDHSFFGSEWQKRWCVVSRGLFYYYANEKSKQPKGTFLIKGYGVRMAPHLRRDSKKESCFELTSQDRRSYEFTATSPAEARDWVDQISFLLKDLSSLTIPYEEDEEEEEKEETYDDIDGFDSPSCGSQCRPTILPGSVGIKEPTEEKEEEDIYEVLPDEEHDLEEDESGTRRKGVDYASYYQGLWDCHGDQPDELSFQRGDLIRILSKEYNMYGWWVGELNSLVGIVPKEYLTTAFEVEER
# Target: the molecule itself
# Assay: SEC + other: dynamic light scattering
protein,measurement,value
B1,stoichiometry N,2
